In the RNAGym collection of RNA variant scans (doi:10.1093/molbev/msab373):

B1: Azoarcus group I ribozyme (parent)
chain: GUGCCUUGCGCCGGGAAACCACGCAAGGGAUGGUGUCAAAUUCGGCGAAACCUAAGCGCCCGCCCGGGCGUAUGGCAACGCCGAGCCAAGCUUCGGCGCCUGCGCCGAUGAAGGUGUAGAGACUAGACGGCACCCACCUAAGGCAAACGCUAUGGUGAAGGCAUAGUCCAGGGAGUGGCGAAAGUCACACAAACCGG

Variants of: B1
Test: reverse-splicing fitness (ratio to wild type); higher = more active; in vitro selection; Mg2+ level not given
In short: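 An in vitro group I ribozyme library with randomized positions was T7-transcribed and gel-purified. In triplicate, 10 pmol RNA in EPPS pH 7.5 was reacted with 50 pmoles of a 30-nt RNA substrate for 1 h at 37 °C across several added MgCl2 levels (1–48 mM), then stopped with EDTA. Products were reverse transcribed from a substrate-complementary primer, PCR-amplified and sequenced (HiSeq 4000). Fitness is a variant's read proportion after selection over that before, normalised to wild type.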

Variant	reverse-splicing fitness
C82U A120C A145U C150G C169A U176C	0.00716
C82U A120C A145U C150G C169A U176A	0.00958
C82U A120C A145U C150G C169A U176G	0.00423
C82U A111U C150G C169A U176C	0.00895
C82U A111U C150G C169A U176A	0.00971
C82U A111U C150G C169A U176G	0.00774
C82U A120C C150G C169U U176C	0.0136
C82U A120C C150G C169U U176A	0.00844
C82U A120C C150G C169U U176G	0.00422
C82U A120C A145U C150A C169G	0.00588
C82U A120C A145U C150A C169A	0.00683
C82U A120C A145U C150A C169U	0.00769
C82U A120C A145G C150A C169A	0.00919
C82U A120C A145G C150A C169G	0.00829
C82U A120C A145G C150A C169U	0.0116
C82U A120C A145U C150U C169A U176G	0.00423
C82U A120C A145U C150U C169A U176A	0.0108
C82U A120C A145U C150U C169A U176C	0.00582
C82U A120C A145U C169A U176G	0.00364
C82U A120C A145U C169A U176C	0.00593
C82U A120C A145U C169A U176A	0.00753

Variant	reverse-splicing fitness
C82U A111U C150G U176G	0.00369
C82U A111U C150G U176C	0.0152
C82U A111U C150G U176A	0.00833
C82U A120C C150A U176G	0.00583
C82U A120C C150A U176A	0.0163
C82U A120C C150A U176C	0.0193
C82U A120G A145C C150A C169A U176A	0.0124
C82U A120G A145C C150A C169A U176G	0.00326
C82U A120G A145C C150A C169A U176C	0.0049
C82U A120G A145C C150A C169G U176C	0.0125
C82U A120G A145C C150A C169G U176A	0.0215
C82U A120G A145C C150A C169G U176G	0.00402
C82U A111U C169A	0.00848
C82U A111U C169G	0.00886
C82U A111U C169U	0.0122
C82U A120C C150G U176G	0.00299
C82U A120C C150G U176C	0.0118
C82U A120C C150G U176A	0.00635
C82U A120C A145U C150U U176A	0.0328
C82U A120C A145U C150U U176G	0.00795
C82U A120C A145U C150U U176C	0.0537

Variant	reverse-splicing fitness
C82U A120G A145C C150A C169U U176C	0.00972
C82U A120G A145C C150A C169U U176G	0.0041
C82U A120G A145C C150A C169U U176A	0.0218
C82U A120C C150A C169G U176C	0.0164
C82U A120C C150A C169G U176A	0.0156
C82U A120C C150A C169G U176G	0.00373
C82U A111U C169A U176A	0.0141
C82U A111U C169A U176G	0.00543
C82U A111U C169A U176C	0.02
C82U A120C A145C C169U U176G	0.00368
C82U A120C A145C C169U U176C	0.0127
C82U A120C A145C C169U U176A	0.0191
C82U A120C A145G C150A	0.0315
C82U A120C A145G C150G	0.0255
C82U A120C A145G C150U	0.139
C82U A111U U176A	0.107
C82U A111U U176G	0.0233
C82U A111U U176C	0.173
C82U A120G A145C	0.0203
C82U A111U C150U C169A U176G	0.00643
C82U A111U C150U C169A U176A	0.0138

Variant	reverse-splicing fitness
C82U A111U C150U C169A U176C	0.0125
C82U A120C C150U C169A U176A	0.0158
C82U A120C C150U C169A U176G	0.00426
C82U A120C C150U C169A U176C	0.0107
C82U A120G A145C C150A	0.00664
C82U A120G A145C C150G	0.00804
C82U A120C C169G	0.00705
C82U A120C C169A	0.00809
C82U A120C C169U	0.0213
C82U A120C A145C C150U C169G U176A	0.0142
C82U A120C A145C C150U C169G U176G	0.00398
C82U A120C A145C C150U C169G U176C	0.00645
C82U A111U C150G C169U U176A	0.00687
C82U A111U C150G C169U U176G	0.00604
C82U A111U C150G C169U U176C	0.0106
C82U A120C A145C U176G	0.00964
C82U A120C A145C U176A	0.0438
C82U A120C A145C U176C	0.0651
C82U A120C A145G C150U U176A	0.0355
C82U A120C A145G C150U U176C	0.0637
C82U A120C A145G C150U U176G	0.00907
